Legend:
[1] = target: T1, wild-type NaV1.5 (Homo sapiens, UniProt Q14524); test: Phosphorylation-dependent late Na current, wild-type NaV1.5 co-expressed with PKAcat or CaMKIIT286D in HEK293 cells; format: cell-based
T1 construct: expressed in transfected cells; host or cells: HEK293 (ATCC CRL1573)
From the text: As such, we sought to determine whether “protective” FHF variants may inhibit phosphorylation-dependent INa,L. To maximally upregulate INa,L, we co-expressed wild-type NaV1.5 with either (1) the catalytic Cα subunit of protein kinase A (PKA) or (2) a constitutively-active Ca^2+/CaM dependent kinase II (CaMKIIT286D) mutant in HEK293 cells. This maneuver likely triggers runaway phosphorylation of NaV1.5 and thereby furnishes a baseline to discern any potential FHF-dependent change. As expected, we observed an ˜5 fold increase in INa,L in the presence of the PKA Cα subunit (FIGS. 3D and 3E), and a 3-fold increase with CaMKIIT286D (FIGS. 3E and 11B). […] Encouraged by these findings, we dissected the functional role of this modulation in native cardiomyocytes (FIGS. 3F and 3G).
The human NaV1.5 channel corresponds to clone M77235.1 (GenBank) and is subcloned into pGW 1 vector with HindIII and SaII. To facilitate construction of channelopathic mutations in the channel carboxy-terminus, we introduced silent mutations into NaV1.5 to introduce an NruI cutting site near the channel carboxy-terminus (5329-gtggccacg-5337 into 5329-gtCgcGacg-5337). Subsequently, we used overlap-extension PCR and ligated the PCR product into NaV1.5/pGW1 using NruI and XbaI restriction sites (mutations: E1784K, S1904L, IQ/AA, and Q1909R). […]

[2] = system: freshly dissociated aMVM; format: in vitro ADME, mouse
Experimental: (§1) The peptide encoding FixR-cpp was chemically synthesized by Genscript (98% purity) to contain the cell permeating viral TAT sequence in the amino-terminus: […] (SEQ ID NO. 2). The amino terminus of the peptide contained a FITC fluorophore to visualize cell uptake. The peptide was resuspended in DMSO. Flow cytometric assays were performed to quantify FixR cellular uptake in both HEK293 cells and freshly dissociated aMVM. HEK293 cells were cultured in 12 well plates and incubated with different concentrations of FixR-cpp for 2 hours and stained for cell death detection using LIVE/DEAD™ Fixable Far Red Dead Cell Stain Kit (ThermoFisher Scientific, L10120). Similarly, non-TG and IQ/AA^tg freshly dissociated aMVM were incubated with various concentrations of FixR-cpp for 2 hours in Tyrode's solution (138 mM NaCl, 4 mM KCl, 1 mM MgCl2, 10 mM HEPES (pH 7.4 using NaOH), 0.2 mM NaHPO4 5 mM D-glucose, 1 mM CaCl2). For cellular uptake measurements, we utilized an LSR II (BD Biosciences) flow cytometer equipped with 405 nm, 488 nm, and 633 nm lasers for excitation and 18 different emission channels. Forward and side scatter signals were detected and used to gate for single and healthy cells. […] Histograms from the Fluorescein 5(6)-isothiocyanate (FITC) and Allophycocyanin (APC) channels for the single-cell population were obtained and analyzed using FlowJo (version X, FlowJo LLC).

[3] = system: HEK293 cells; format: cell-based; conditions: up to 10 μM FixR-cpp, 2 hours
Experimental: as §1

T1 sequence (Q14524 whole entry): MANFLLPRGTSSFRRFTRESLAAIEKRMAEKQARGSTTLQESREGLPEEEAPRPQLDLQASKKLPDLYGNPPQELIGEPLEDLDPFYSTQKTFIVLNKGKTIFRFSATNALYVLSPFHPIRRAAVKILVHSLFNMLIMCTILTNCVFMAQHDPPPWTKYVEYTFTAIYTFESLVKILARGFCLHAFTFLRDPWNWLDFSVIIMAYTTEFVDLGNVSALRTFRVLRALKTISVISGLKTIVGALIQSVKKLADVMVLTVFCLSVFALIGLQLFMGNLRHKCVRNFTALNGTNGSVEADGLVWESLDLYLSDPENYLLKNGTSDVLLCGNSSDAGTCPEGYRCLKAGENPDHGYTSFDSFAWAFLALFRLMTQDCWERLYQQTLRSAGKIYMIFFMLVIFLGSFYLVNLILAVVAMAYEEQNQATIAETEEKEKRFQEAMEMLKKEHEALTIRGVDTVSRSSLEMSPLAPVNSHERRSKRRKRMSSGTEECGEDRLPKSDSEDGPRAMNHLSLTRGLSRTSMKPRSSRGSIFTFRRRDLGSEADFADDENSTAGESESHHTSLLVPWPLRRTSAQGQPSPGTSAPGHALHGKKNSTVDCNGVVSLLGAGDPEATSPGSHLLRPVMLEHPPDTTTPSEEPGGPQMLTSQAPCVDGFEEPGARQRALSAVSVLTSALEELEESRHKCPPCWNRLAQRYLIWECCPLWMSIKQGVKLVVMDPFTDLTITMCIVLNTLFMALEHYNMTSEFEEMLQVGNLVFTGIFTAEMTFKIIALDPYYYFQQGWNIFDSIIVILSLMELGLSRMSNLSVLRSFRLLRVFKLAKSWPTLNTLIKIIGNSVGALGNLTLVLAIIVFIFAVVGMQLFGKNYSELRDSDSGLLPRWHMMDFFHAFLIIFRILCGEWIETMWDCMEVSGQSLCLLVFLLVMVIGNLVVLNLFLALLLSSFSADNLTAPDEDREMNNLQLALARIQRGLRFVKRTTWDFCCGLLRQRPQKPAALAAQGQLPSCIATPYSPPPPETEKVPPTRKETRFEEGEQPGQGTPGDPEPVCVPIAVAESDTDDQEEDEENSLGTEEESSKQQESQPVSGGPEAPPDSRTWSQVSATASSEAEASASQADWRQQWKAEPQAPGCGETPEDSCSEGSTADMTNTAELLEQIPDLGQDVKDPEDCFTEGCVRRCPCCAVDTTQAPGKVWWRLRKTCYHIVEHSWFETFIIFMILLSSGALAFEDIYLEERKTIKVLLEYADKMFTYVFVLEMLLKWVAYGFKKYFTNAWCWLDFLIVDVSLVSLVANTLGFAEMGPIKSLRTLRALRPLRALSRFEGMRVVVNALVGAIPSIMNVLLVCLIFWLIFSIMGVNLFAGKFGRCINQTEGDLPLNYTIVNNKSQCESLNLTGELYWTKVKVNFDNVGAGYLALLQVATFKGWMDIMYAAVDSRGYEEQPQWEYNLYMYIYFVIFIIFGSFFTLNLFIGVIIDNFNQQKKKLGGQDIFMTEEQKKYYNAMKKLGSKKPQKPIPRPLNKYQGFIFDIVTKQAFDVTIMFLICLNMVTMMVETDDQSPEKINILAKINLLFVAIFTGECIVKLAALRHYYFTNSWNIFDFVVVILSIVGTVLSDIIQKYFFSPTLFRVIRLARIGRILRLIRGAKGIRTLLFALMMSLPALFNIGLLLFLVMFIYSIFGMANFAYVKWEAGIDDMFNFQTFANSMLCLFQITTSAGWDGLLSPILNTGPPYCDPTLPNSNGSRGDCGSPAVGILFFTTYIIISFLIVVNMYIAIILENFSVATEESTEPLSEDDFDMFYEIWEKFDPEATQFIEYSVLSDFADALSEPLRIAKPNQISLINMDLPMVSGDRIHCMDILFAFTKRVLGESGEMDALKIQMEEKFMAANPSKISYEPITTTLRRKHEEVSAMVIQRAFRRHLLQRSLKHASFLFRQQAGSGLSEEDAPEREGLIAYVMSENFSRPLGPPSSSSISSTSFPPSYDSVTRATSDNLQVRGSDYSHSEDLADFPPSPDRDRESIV

| Substance | change in phosphorylation-dependent INa,L ([1]; INa,L upregulated by CaMKIIT286D) | change in phosphorylation-dependent INa,L ([1]; INa,L upregulated by PKA catalytic subunit (PKAcat)) | enhancement in fluorescence intensity ([2]; 10 μM, 2 hours, flow-cytometer) [fold] | uptake into freshly dissociated cardiomyocytes ([2]; epifluorescence imaging) | cell death [3] |
| --- | --- | --- | --- | --- | --- |
| FixR: minimal 39-amino-acid FHF1A amino-terminal effector domain, MAAAIASSLIRQKRQARESNSDRVSASKRRSSPSKDGRS (SEQ ID NO: 4), expressed as peptide | reduces INa,L | reduces INa,L | – | – | – |
| FixR-cpp: FixR fused to HIV-1 TAT transduction domain, YGRKKRRQRRRAAAIASSLIRQKRQARESNSERVSASKRRSSPSKG (SEQ ID NO: 2) | – | – | ~150 | robust uptake | Minimal cell death |
